Measured values reported in patent US20220411799, “DNMT1-Specific Aptamers and Production and Uses Thereof” (National University of Singapore, published 2022).
Numbering of substitutions follows the chain as printed.

B1: Ce-9 (long, 61-mer) (ssRNA)
RNA: GGGCUGAAGGGGUUACUGGGCUGAGCUCAUGGCGAGGCUUCUUAUCUGCCCCGGGGAGGAG
modifications: 2'-F pyrimidines
B2: Ce-10 (long, 61-mer) (ssRNA)
RNA: B1 RNA with C26G, C28A
modifications: 2'-F pyrimidines
B3: Ce-49 (long, 61-mer) (ssRNA)
RNA: GGGCUGAAGGGGUUACUGGGCUGAGGCCUAACGAAGGCUUCUUAUCUGCCCCGGGGAGGAG
modifications: 2'-F pyrimidines

Columns and labels:
DNMT1 [1] = target: T1, DNMT1 (Homo sapiens, UniProt P26358 P26358:1-1616); test: inhibition; all short sequences stated; details: tags: His-tagged (Active Motif), full-length; GST-tagged version (Active Motif) used for SELEX; label: 3'-biotin; hairpin
T1 sequence (P26358 whole entry, one chain of several): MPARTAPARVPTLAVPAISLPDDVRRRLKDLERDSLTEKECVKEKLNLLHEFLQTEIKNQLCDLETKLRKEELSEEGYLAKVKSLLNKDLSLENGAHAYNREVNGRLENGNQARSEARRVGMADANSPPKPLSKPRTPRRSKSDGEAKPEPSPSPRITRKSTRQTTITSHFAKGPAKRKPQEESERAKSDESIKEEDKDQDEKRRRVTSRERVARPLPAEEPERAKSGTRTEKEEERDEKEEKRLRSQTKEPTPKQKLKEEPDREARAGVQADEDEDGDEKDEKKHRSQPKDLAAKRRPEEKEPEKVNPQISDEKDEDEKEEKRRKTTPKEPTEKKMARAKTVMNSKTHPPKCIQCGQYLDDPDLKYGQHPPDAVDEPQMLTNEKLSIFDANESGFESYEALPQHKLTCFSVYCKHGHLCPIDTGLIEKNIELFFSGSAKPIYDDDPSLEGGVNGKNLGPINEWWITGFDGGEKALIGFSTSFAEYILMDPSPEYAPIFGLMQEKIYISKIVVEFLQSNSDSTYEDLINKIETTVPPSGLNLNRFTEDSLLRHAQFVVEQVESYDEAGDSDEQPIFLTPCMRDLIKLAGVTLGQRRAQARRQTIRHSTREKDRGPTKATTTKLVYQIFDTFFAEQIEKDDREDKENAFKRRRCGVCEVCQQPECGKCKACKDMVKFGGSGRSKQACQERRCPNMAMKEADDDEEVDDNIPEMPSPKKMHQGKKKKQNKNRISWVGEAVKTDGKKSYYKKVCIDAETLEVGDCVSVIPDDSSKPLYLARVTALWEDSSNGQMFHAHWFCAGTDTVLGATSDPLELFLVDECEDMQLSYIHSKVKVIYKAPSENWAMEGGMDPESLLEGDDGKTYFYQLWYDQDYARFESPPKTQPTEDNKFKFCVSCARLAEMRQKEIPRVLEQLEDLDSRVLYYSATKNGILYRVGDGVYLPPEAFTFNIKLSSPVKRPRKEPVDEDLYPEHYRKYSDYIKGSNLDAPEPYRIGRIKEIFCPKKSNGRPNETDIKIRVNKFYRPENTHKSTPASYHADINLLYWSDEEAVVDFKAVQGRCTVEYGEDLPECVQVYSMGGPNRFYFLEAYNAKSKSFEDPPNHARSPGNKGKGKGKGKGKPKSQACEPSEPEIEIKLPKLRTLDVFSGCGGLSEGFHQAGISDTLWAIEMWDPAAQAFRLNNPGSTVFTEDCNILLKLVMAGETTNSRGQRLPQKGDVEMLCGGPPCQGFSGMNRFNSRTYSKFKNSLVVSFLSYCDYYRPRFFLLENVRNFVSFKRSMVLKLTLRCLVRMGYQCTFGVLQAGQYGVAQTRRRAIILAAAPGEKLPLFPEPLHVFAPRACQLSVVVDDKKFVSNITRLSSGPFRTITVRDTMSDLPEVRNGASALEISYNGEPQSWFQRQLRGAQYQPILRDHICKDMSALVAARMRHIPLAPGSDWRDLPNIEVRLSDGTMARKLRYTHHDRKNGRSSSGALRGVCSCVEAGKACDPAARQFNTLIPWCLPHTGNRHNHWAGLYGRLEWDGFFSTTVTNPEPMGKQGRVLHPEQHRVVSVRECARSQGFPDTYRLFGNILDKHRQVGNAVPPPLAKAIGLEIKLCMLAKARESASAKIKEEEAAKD

DNMT3A = DNMT3A (UniProt Q9Y6K1 Q9Y6K1:1-912); test: BLI; specificity control
Sequence of DNMT3A (Q9Y6K1 whole entry, one chain of several): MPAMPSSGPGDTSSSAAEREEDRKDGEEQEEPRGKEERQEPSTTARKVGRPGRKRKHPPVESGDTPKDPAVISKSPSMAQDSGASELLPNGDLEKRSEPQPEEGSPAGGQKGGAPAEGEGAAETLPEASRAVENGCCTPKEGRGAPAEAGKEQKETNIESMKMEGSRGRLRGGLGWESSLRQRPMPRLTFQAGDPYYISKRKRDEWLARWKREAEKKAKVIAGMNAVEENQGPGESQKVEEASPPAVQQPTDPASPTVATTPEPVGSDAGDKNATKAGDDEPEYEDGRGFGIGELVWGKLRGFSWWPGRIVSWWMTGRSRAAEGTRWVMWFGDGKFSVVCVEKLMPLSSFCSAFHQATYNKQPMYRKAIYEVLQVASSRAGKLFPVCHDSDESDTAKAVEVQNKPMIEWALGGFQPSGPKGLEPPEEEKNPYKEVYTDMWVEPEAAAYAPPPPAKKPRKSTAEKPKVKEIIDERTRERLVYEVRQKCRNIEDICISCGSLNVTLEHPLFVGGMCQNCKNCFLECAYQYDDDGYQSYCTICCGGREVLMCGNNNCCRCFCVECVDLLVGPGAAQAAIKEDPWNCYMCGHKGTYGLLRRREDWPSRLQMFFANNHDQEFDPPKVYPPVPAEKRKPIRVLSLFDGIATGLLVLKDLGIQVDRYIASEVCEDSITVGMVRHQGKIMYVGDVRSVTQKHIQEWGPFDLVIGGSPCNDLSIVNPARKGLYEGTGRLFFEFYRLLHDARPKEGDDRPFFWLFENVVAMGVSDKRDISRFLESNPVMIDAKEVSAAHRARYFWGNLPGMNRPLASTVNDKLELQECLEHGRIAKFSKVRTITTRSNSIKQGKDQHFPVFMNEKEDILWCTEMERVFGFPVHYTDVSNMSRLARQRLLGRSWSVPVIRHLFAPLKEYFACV

KAT5 = KAT5 (UniProt Q92993 Q92993:1-513); test: BLI; specificity control; details: label: 3'-biotin (ELONA, pulldown); hairpin
Sequence of KAT5 (Q92993 whole entry, one chain of several): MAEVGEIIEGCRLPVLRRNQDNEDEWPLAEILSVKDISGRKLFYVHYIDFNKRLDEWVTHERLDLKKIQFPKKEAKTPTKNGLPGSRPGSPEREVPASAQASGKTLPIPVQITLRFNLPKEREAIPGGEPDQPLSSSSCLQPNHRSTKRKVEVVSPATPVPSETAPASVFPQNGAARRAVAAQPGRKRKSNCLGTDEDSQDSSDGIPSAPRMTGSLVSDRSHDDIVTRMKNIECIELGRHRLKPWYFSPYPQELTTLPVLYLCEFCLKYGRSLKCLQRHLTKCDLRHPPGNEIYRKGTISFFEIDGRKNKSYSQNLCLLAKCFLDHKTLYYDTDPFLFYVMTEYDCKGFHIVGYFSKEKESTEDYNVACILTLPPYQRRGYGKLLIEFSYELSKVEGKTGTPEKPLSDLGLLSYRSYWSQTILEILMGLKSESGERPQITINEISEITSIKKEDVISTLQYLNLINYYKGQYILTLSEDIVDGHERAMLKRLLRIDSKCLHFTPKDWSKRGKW

DNMT3B = DNMT3B (UniProt Q9UBC3 Q9UBC3:1-853); test: BLI; specificity control
DNMT1 [2] = target: T1, DNMT1; test: BLI; 100 nM to 2 uM; R2=0.9017; p159 states Kd not measurable; details: tags: His-tagged (Active Motif), full-length; GST-tagged version (Active Motif) used for SELEX; label: 3'-biotin (ELONA, pulldown); hairpin
Procedure: Dose-response binding analyses were also performed with the 2′F-pyrimidine modified R5 (indicated as DNMT1-bait) at concentrations ranging between 100 nM and 2 μM, since no binding was detected at lower concentrations (FIG. 8a). In accordance with previous findings, no binding was detected for the mutR5 sequence which is unable to fold in stem-loop-like structures and used as a negative control (FIG. 8b).

DNMT1 [3] = target: T1, DNMT1; test: inhibition; in vitro DNMT1 inhibitor screening assay; details: tags: His-tagged (Active Motif), full-length; GST-tagged version (Active Motif) used for SELEX; label: 3'-biotin (ELONA, pulldown); hairpin
Procedure: FIG. 5. Functional activity of the aptamers. (a) Activity of purified DNMT1 protein was analyzed in vitro by DNMT1 inhibitor screening assay in the absence (“-”) or in the presence of indicated aptamers. Results are expressed as percentage relative to the activity of DNMT1 protein alone; b. DNMT1 inhibitor screening assay performed with K-562 nuclear extracts from untreated cells (NT), treated with a sequence unable to bind DNMT1 (control) or transfected with the respective aptamers Ce-10-2 sh and Ce-49 sh. Results are expressed as percentage relative to the activity detected in NT sample; c. expression levels 72 hours upon aptamers transfection; d, e. Cell viability of CML K562 cells (d) or NSCLC Calu-1 and A549 cells (e) transfected with indicated aptamers or Cont. for 72 hours. In (a-d) Error bars depict mean±s.d.; R5-F: R5 sequence modified with 2′F-Py.
As next step, the present disclosure tested aptamer ability to inhibit DNMT1-mediated methylation. As first attempt, the present disclosure performed an in vitro DNMT1 inhibitor screening assay. The activity of DNMT1 purified protein was measured in the absence or in the presence of R5-F or the selected short sequences. […] The functional effects of the best binders (Ce-49 sh and Ce-10-2 sh) was further characterized monitoring the in vivo DNMT1 activity by using cell nuclear extracts from chronic K562 CML cells transfected with the aptamers (FIG. 5b).

DNMT1 [4] = target: T1, DNMT1; test: ELONA; 200 nM aptamer; details: tags: His-tagged (Active Motif), full-length; GST-tagged version (Active Motif) used for SELEX; label: 5'-biotin; hairpin
Procedure: (§1) Microtiter High Binding plate (Nunc MaxiSorp) wells were coated with 30 nM of His-tagged DNMT1 (Active Motif) or HSA overnight at 4° C. All subsequent steps were performed at room temperature. After incubation, the plate was washed once with PBS and then blocked each well with 300 μl 3% BSA (AppliChem) in PBS for 2 hours. After two washes, the plate was incubated with 100 μL of 3′-biotinylated aptamers dissolved in PBS for 2 hours. Next, the plate was washed three times and streptavidin-conjugated horseradish peroxidase (HRP) (Sigma Aldrich) was added (1:10000 dilution). After 1-hour incubation, the plate was washed four times and the 3,3′,5,5′-Tetramethylbenzidine (TMB) substrate solution was added. The reaction was stopped with sulfuric acid (H₂SO₄) 0,16 M, forming a yellow reaction product that was read with microplate Reader (Thermo Scientific) at 450 nm.
The present disclosure identified three clusters of sequences with two aptamers (Ce-9 and Ce-10) representing the most enriched ones (FIG. 2a). These two aptamers present two mismatches among them and both had three mutation points compared to R5 (FIG. 2b). These sequences, together with Ce-49 that comes from a different cluster, were tested for the binding to DNMT1 purified protein by ELONA at 200 nM concentration.

[5] = target: Human serum albumin (HSA) (Homo sapiens, UniProt P02768 P02768:25-609); test: ELONA; no significant binding up to 750 nM; details: label: 3'-biotin (ELONA, pulldown); hairpin
Sequence of Human serum albumin (HSA) (P02768 25-609, one chain of several): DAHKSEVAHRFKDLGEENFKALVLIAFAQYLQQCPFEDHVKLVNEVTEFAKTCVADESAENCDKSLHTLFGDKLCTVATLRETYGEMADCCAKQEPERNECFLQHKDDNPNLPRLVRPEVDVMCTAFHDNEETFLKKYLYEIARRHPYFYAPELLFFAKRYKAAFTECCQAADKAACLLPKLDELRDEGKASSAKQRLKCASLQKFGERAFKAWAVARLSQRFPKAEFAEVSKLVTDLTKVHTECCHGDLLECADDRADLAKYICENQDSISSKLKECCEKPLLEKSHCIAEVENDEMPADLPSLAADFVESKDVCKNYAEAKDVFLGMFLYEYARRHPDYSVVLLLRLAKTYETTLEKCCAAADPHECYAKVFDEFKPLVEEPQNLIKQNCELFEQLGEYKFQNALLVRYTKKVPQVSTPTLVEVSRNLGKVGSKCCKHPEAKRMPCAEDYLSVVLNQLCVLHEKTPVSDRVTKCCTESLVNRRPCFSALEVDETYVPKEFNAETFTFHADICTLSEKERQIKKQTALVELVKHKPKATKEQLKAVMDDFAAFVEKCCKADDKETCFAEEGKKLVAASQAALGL
Procedure: as §1
To check the aptamer specificity, the present disclosure monitored the binding of Ce-49 sh and Ce-10-2 sh to the human serum albumin (HSA), the most enriched plasma protein that can bind, in a nonspecific manner, nucleic acids through its positive charge, thus limiting their use. […] As shown, no significant aptamer binding was measured up to 750 nM concentration. Binding was instead detected when aptamers were incubated with DNMT1 protein (FIG. 7).

DNMT1 [6] = target: T1, DNMT1; test: BLI; BLItz, mutR5 background subtracted; details: tags: His-tagged (Active Motif), full-length; GST-tagged version (Active Motif) used for SELEX; label: 3'-biotin (ELONA, pulldown); hairpin
Description: FIG. 4. Affinity and in vivo binding of DNMT1-specific aptamers. a. Analysis of Ce-49 sh and Ce-10 sh binding affinity to DNMT1 assessed by the Blitz system (ForteBIO). The background values obtained with mutR5 used as a negative control were subtracted from the values obtained with the aptamers; REMSA showing stronger Ce-49 sh and Ce-10 sh binding ability to DNMT1 than two alternative secondary structures of the original R5F (R5modified with 2′F-Py). Unrelated RNA and DNA are two […] controls. R01(unable to form stem-loop-like structures) is used as negative control; c. Increasing amount of Ce-49 sh and Ce-10 sh biotinylated aptamers were incubated in the presence or absence of HSA purified protein. No significant difference was detected between the blank control and the aptamers by ELONA. Error bars depict mean±s.d.; d. Aptamer-mediated pull-down. Protein extract from K562 cells were incubated with the biotinylated R5-F, Ce-49 sh and Ce-10-2 sh. Bound proteins were purified on streptavidin beads and immunoblotted with anti-DNMT1 antibodies.
Next, aptamer affinity to DNMT1 was assessed by the Blitz system (ForteBIO).

Binder | activity (DNMT1 [1]) [% inhibition] | binding result (DNMT3A) | binding result (KAT5) | binding result (DNMT3B) | activity (DNMT1 [3]) [% inhibition] | binding result (DNMT1 [4]) | further results
CUGAGGUAAUGGCGAGGCUUCU (ssRNA, 2'-F pyrimidines (listed with T in the sequence, described as RNA)) [Ce-10-R5] | ~40 | – | – | – | – | – | –
UGGGCUGAGCUCAUGGCGAGGCUUC (ssRNA, 2'-F pyrimidines) [Ce-9 sh] | ~40 | – | – | – | – | – | –
CUGAGGCCUUGGCGAGGCUUCU (ssRNA, 2'-F pyrimidines) [R5-F (DNMT1 bait)] | – | no binding | no binding | no binding | ~40 | – | Kd (DNMT1 [2]): 600 nM
B1 | – | – | – | – | – | binds | –
B2 | – | – | – | – | – | binds | –
UUACUGGGCUGAGGUAAUGGCGAGG (ssRNA, 2'-F pyrimidines) [Ce-10-2 sh] | – | no binding | no binding | no binding | ~40 | – | binding result [5]: no binding; Kd (DNMT1 [6]): ~66 nM
B3 | – | – | – | – | – | binds | –
CUGAGGCCUAACGAAGGCUUCU (ssRNA, 2'-F pyrimidines) [Ce-49 sh] | – | no binding | no binding | no binding | ~40 | – | binding result [5]: no binding; Kd (DNMT1 [6]): ~79 nM
AGGUAAUGGCGAGGCUUCUUAUCUG (ssRNA, 2'-F pyrimidines) [Ce-10-1 sh] | ~40 | – | – | – | – | – | –
